The record followed here is the Human Domainome abundance scans (Beltran et al. 2025).

± gives the uncertainty stated by the source.

The series can be described thus: abundance fitness (aPCA) (normalised: wild type 0, dead -1); higher = more abundant; growth selection in yeast, the domain comes from the species named. As to conditions: Homo sapiens.
“SAFB-like transcription modulator L68V, Q9NWH9”: the abundance fitness is -0.075 ± 0.063.

With “SAFB-like transcription modulator L68W, Q9NWH9”, the abundance fitness was -0.181 ± 0.052.

In the case of “SAFB-like transcription modulator L68Y, Q9NWH9”, the abundance fitness was -0.763 ± 0.31.

“SAFB-like transcription modulator N38A, Q9NWH9” gave an abundance fitness of -0.296 ± 0.063.

Consider “SAFB-like transcription modulator N38D, Q9NWH9”, for which the abundance fitness is -0.222 ± 0.086.

Substance “SAFB-like transcription modulator N38E, Q9NWH9” gave an abundance fitness of -0.153 ± 0.034.

Regarding “SAFB-like transcription modulator N38F, Q9NWH9”, the abundance fitness was -0.24 ± 0.083.

As for “SAFB-like transcription modulator N38G, Q9NWH9”, the abundance fitness was -0.002 ± 0.047.

With “SAFB-like transcription modulator N38H, Q9NWH9”, the abundance fitness is -0.492 ± 0.2.

As to “SAFB-like transcription modulator N38K, Q9NWH9”, the abundance fitness was -0.092 ± 0.047.

“SAFB-like transcription modulator N38L, Q9NWH9” gave an abundance fitness of -0.247 ± 0.05.

In turn, “SAFB-like transcription modulator N38M, Q9NWH9” registered an abundance fitness of -0.192 ± 0.057.

“SAFB-like transcription modulator N38P, Q9NWH9” displayed an abundance fitness of -1.06 ± 0.15.

The substance “SAFB-like transcription modulator N38Q, Q9NWH9” displayed an abundance fitness of -0.04 ± 0.046.

“SAFB-like transcription modulator N38R, Q9NWH9” displayed an abundance fitness of -0.141 ± 0.044.

As to “SAFB-like transcription modulator N38S, Q9NWH9”, the abundance fitness is -0.105 ± 0.048.

Substance “SAFB-like transcription modulator N38T, Q9NWH9” displayed an abundance fitness of -0.233 ± 0.073.

As for “SAFB-like transcription modulator N38V, Q9NWH9”, the abundance fitness was -0.688 ± 0.052.

Regarding “SAFB-like transcription modulator N38W, Q9NWH9”, the abundance fitness was -0.368 ± 0.037.

For “SAFB-like transcription modulator N38Y, Q9NWH9”, the abundance fitness was -0.455 ± 0.11.

On to “SAFB-like transcription modulator N65A, Q9NWH9”, for which the abundance fitness is -0.236 ± 0.065.

Regarding “SAFB-like transcription modulator N65C, Q9NWH9”, the abundance fitness was -0.126 ± 0.074.

The substance “SAFB-like transcription modulator N65D, Q9NWH9” had an abundance fitness of -0.186 ± 0.082.

Substance “SAFB-like transcription modulator N65E, Q9NWH9” registered an abundance fitness of -0.165 ± 0.069.

For the substance “SAFB-like transcription modulator N65F, Q9NWH9”, the abundance fitness was -0.101 ± 0.065.

For the substance “SAFB-like transcription modulator N65G, Q9NWH9”, the abundance fitness was -0.365 ± 0.052.

Turning to “SAFB-like transcription modulator N65H, Q9NWH9”, the abundance fitness was -0.166 ± 0.084.

Take “SAFB-like transcription modulator N65K, Q9NWH9”: the abundance fitness is -0.103 ± 0.038.

For the substance “SAFB-like transcription modulator N65L, Q9NWH9”, the abundance fitness was -0.206 ± 0.035.

“SAFB-like transcription modulator N65M, Q9NWH9” showed an abundance fitness of -0.135 ± 0.055.

Regarding “SAFB-like transcription modulator N65P, Q9NWH9”, the abundance fitness is -0.575 ± 0.036.

“SAFB-like transcription modulator N65Q, Q9NWH9” displayed an abundance fitness of -0.176 ± 0.076.

On to “SAFB-like transcription modulator N65R, Q9NWH9”, for which the abundance fitness is -0.094 ± 0.045.

Turning to “SAFB-like transcription modulator N65S, Q9NWH9”, the abundance fitness is -0.162 ± 0.04.

Take “SAFB-like transcription modulator N65T, Q9NWH9”: the abundance fitness is -0.281 ± 0.059.

“SAFB-like transcription modulator N65W, Q9NWH9” yielded an abundance fitness of -0.339 ± 0.071.

The substance “SAFB-like transcription modulator N65Y, Q9NWH9” registered an abundance fitness of -0.191 ± 0.065.

As to “SAFB-like transcription modulator P63A, Q9NWH9”, the abundance fitness is -0.23 ± 0.053.

The substance “SAFB-like transcription modulator P63C, Q9NWH9” showed an abundance fitness of -0.134 ± 0.04.

Regarding “SAFB-like transcription modulator P63D, Q9NWH9”, the abundance fitness was -0.553 ± 0.064.

Substance “SAFB-like transcription modulator P63E, Q9NWH9” gave an abundance fitness of -0.337 ± 0.058.

“SAFB-like transcription modulator P63F, Q9NWH9” showed an abundance fitness of -0.257 ± 0.045.

In turn, “SAFB-like transcription modulator P63H, Q9NWH9” came in with an abundance fitness of -0.397 ± 0.049.

“SAFB-like transcription modulator P63I, Q9NWH9” had an abundance fitness of -0.165 ± 0.057.

As for “SAFB-like transcription modulator P63K, Q9NWH9”, the abundance fitness is -0.354 ± 0.074.

Substance “SAFB-like transcription modulator P63L, Q9NWH9” gave an abundance fitness of -0.213 ± 0.038.

The substance “SAFB-like transcription modulator P63M, Q9NWH9” showed an abundance fitness of -0.264 ± 0.068.

“SAFB-like transcription modulator P63N, Q9NWH9” had an abundance fitness of -0.422 ± 0.045.

“SAFB-like transcription modulator P63Q, Q9NWH9” returned an abundance fitness of -0.48 ± 0.082.

“SAFB-like transcription modulator P63R, Q9NWH9” registered an abundance fitness of -0.478 ± 0.053.

Substance “SAFB-like transcription modulator P63S, Q9NWH9” yielded an abundance fitness of -0.17 ± 0.049.

“SAFB-like transcription modulator P63T, Q9NWH9”: the abundance fitness was -0.053 ± 0.065.

In turn, “SAFB-like transcription modulator P63V, Q9NWH9” had an abundance fitness of -0.09 ± 0.034.

Consider “SAFB-like transcription modulator P63W, Q9NWH9”, for which the abundance fitness is -0.245 ± 0.059.

For the substance “SAFB-like transcription modulator P63Y, Q9NWH9”, the abundance fitness was -0.214 ± 0.051.

Consider “SAFB-like transcription modulator Q54A, Q9NWH9”, for which the abundance fitness was -0.167 ± 0.083.

Consider “SAFB-like transcription modulator Q54C, Q9NWH9”, for which the abundance fitness was -0.209 ± 0.087.

“SAFB-like transcription modulator Q54F, Q9NWH9” showed an abundance fitness of -0.068 ± 0.1.

On to “SAFB-like transcription modulator Q54G, Q9NWH9”, for which the abundance fitness was -0.258 ± 0.069.

With “SAFB-like transcription modulator Q54K, Q9NWH9”, the abundance fitness was 0.057 ± 0.1.

The substance “SAFB-like transcription modulator Q54L, Q9NWH9” displayed an abundance fitness of 0 ± 0.072.

For “SAFB-like transcription modulator Q54M, Q9NWH9”, the abundance fitness is -0.009 ± 0.1.

“SAFB-like transcription modulator Q54N, Q9NWH9” registered an abundance fitness of -0.037 ± 0.24.

As to “SAFB-like transcription modulator Q54P, Q9NWH9”, the abundance fitness is -0.666 ± 0.3.

Take “SAFB-like transcription modulator Q54R, Q9NWH9”: the abundance fitness is -0.106 ± 0.045.

On to “SAFB-like transcription modulator Q54S, Q9NWH9”, for which the abundance fitness is -0.526 ± 0.1.

On to “SAFB-like transcription modulator Q54T, Q9NWH9”, for which the abundance fitness was 0.146 ± 0.09.

“SAFB-like transcription modulator Q54V, Q9NWH9” came in with an abundance fitness of -0.209 ± 0.078.

“SAFB-like transcription modulator Q54W, Q9NWH9” returned an abundance fitness of -0.043 ± 0.08.

In the case of “SAFB-like transcription modulator Q54Y, Q9NWH9”, the abundance fitness was -0.497 ± 0.27.

“SAFB-like transcription modulator R26A, Q9NWH9” displayed an abundance fitness of -0.12 ± 0.1.

Regarding “SAFB-like transcription modulator R26C, Q9NWH9”, the abundance fitness is -0.57 ± 0.14.

“SAFB-like transcription modulator R26D, Q9NWH9” registered an abundance fitness of 0.033 ± 0.15.

Consider “SAFB-like transcription modulator R26E, Q9NWH9”, for which the abundance fitness was -0.191 ± 0.11.

Take “SAFB-like transcription modulator R26F, Q9NWH9”: the abundance fitness was -0.268 ± 0.065.

In the case of “SAFB-like transcription modulator R26G, Q9NWH9”, the abundance fitness was -0.19 ± 0.08.

With “SAFB-like transcription modulator R26H, Q9NWH9”, the abundance fitness is -0.322 ± 0.23.

For the substance “SAFB-like transcription modulator R26K, Q9NWH9”, the abundance fitness is -0.389 ± 0.14.

“SAFB-like transcription modulator R26L, Q9NWH9” showed an abundance fitness of -0.131 ± 0.078.

Consider “SAFB-like transcription modulator R26M, Q9NWH9”, for which the abundance fitness was -0.098 ± 0.092.

As for “SAFB-like transcription modulator R26P, Q9NWH9”, the abundance fitness was -0.126 ± 0.14.

For the substance “SAFB-like transcription modulator R26Q, Q9NWH9”, the abundance fitness is -0.502 ± 0.17.

“SAFB-like transcription modulator R26S, Q9NWH9” had an abundance fitness of -0.011 ± 0.071.

Take “SAFB-like transcription modulator R26T, Q9NWH9”: the abundance fitness was -0.302 ± 0.12.

“SAFB-like transcription modulator R26V, Q9NWH9” came in with an abundance fitness of -0.365 ± 0.085.

For the substance “SAFB-like transcription modulator R26W, Q9NWH9”, the abundance fitness was -0.627 ± 0.1.

“SAFB-like transcription modulator R26Y, Q9NWH9” yielded an abundance fitness of -0.579 ± 0.27.

For the substance “SAFB-like transcription modulator R36S, Q9NWH9”, the abundance fitness was -0.048 ± 0.42.

“SAFB-like transcription modulator R37A, Q9NWH9” registered an abundance fitness of -1.09 ± 0.091.

As for “SAFB-like transcription modulator R37C, Q9NWH9”, the abundance fitness was -0.921 ± 0.052.

Substance “SAFB-like transcription modulator R37D, Q9NWH9” registered an abundance fitness of -0.621 ± 0.052.
